The text below walks through data of patent US8318640B2, “Methods for selective targeting” (Danisco US Inc., priority 2000, dated 2012).

The target of data set [1] is T1, (h) TNF-α (Homo sapiens, UniProt P01375). Briefly: Selective targeting of a phage-displayed 7-mer library on TNF-α, PCR identification of bound clones. The data set is classed as binding. To be noted: number of multiple times this amino acid sequence occurred out of 24 clones sequenced; binds TNF-alpha and not SuperBlock. The arrangement: purchased BioSource International; Camarillo, Calif. As to the method: A thin-walled PCR tube was coated with the target human (h) TNF-α (BioSource International; Camarillo, Calif.) by incubating 100 μl of 0.5 mg/ml purified TNF-α in PBS overnight at 4° C. in the PCR tube. Excess unbound TNF-α was removed, and the tube was coated overnight at 4° C. with 100 μl of SuperBlock™ blocking buffer (Pierce: Rockford, Ill.) in Tris buffered saline (TBS). The anti-target (SuperBlock™ blocking buffer) was prepared in separate PCR tubes coated overnight at 4° C. with 100 μl of SuperBlock™.
Unbound phage were removed by washing the tube 5 times with 150 μl PBS containing 0.1% Tween-20 at room temperature. Low affinity binders were washed away by incubating with 60 μl of 0.2 M Glycine (pH 2.2) for 6 minutes followed by neutralization with 9 μl 1 M Tris-Cl (pH 9.1). The acid washed population was retained for further analysis. The tube was then washed again 3 times with 150 μl of PBS.
To the remaining phage-peptides bound to the TNF-α, 54 μl of Lysis Buffer A (10 mM Tris-Cl, pH 8.4, 0.1% Triton-X100) and an AmpliWax™ PCR gem (Perkin Elmer, Norwalk, USA.) was added. The tube was heated at 95° C. for 15 min and then allowed to cool. The following PCR reagents were then added:
PCR amplification was performed using 20 cycles of denaturation at 94° C. for 15 sec, annealing at 55° C. for 20 sec, and extension at 72° C. for 30 sec. The sequences of the primers (synthesized by GIBCO BRL) were: […]
The PCR product (267 base pairs (bp)) was analyzed on an 8% polyacrylamide gel along with the PCR product from a single phage peptide clone (positive control) and molecular weight markers (FIG. 2). […] This was due to too much template (i.e. phage) in the PCR reaction, and can be alleviated by decreasing the phage concentration or by decreasing the number of PCR cycles (FIG. 3). To decrease the amount of the 500-700 bp diffuse band, the PCR product was diluted appropriately for subsequent PCR reactions from this starting material to generate more products for sub-cloning purposes. Once the desired product (267 bp) was amplified, it was digested with Eagl and Acc651 restriction endonucleases to produce a 45 bp fragment containing the DNA coding for the random peptide. The 45 bp fragment was then sub-cloned into the M13KE vector (New England Biolabs; Beverly, Mass.) at the EagI and Acc65I restriction sites using standard techniques (Sambrook, et al., (1989) supra). After ligating the 45 bp fragment into the M13KE vector, the ligation reaction was transformed into chemically competent ER2537 E. coli cells. The cells were made competent with calcium chloride using a standard protocol (Sambrook, et al., (1989) supra). The M13 DNA was isolated from various transformants using a modified protocol from New England Biolab's protocol for M13 DNA preparation and then sequenced. The modification includes the use of 96-well plates as opposed to tubes.

The nature of data set [2]: ELISA of biotinylated peptide binding to skin. The arrangement: species or system human. To be noted: 200 μM biotinylated peptide in 2% body wash; FIG. 9. An excerpt:
(§1) Peptide sequences identified in Examples 13 and 14 along with a random control peptide were C-terminally labeled with the sequence GGGK (biotin). The sequence LESTPKMK (SEQ ID NO: 115) contains the consensus sequence LEST and was isolated on hair. FTQSLPR (SEQ ID NO: 116) contains the consensus sequence TQSL and was isolated on skin. YGGFMTSE (SEQ ID NO: 117) is a control peptide.
(§2) Dark brown hair (3″ long, 4 each), moistened with 2% body wash and pre-equilibrated human skin tissues, were placed in the wells of a 24 well plate. 1 ml of a 200 μM solution of the biotinylated peptide in 2% Neutrogena body wash was added to the hair and skin samples and incubated 30 min at room temperature with gentle agitation. The solution was then pipetted off and the hair and skin samples transferred with clean tweezers to a 50 ml conical tube, washed once with 50 ml of 2% body wash, twice with 50 ml of water, and once with 50 ml of PBS; each wash step took 5 min and was performed on a rotary shaker at 20 rpm. The hair and skin samples were then transferred with clean tweezers to a fresh 24 well plate where 1 ml of streptavidin conjugated horseradish peroxidase (diluted 1/1000 in PBS) was added for 1 hr at room temperature under gentle rocking. Excess streptavidin HRP was removed by washing twice with 50 ml of PBS (5 min, 20 rpm each) in a 50 mL conical tube. […]
In general terms: ELISA stands for enzyme-linked immunosorbent assay.

Data set [3] in a line: Ni-chelated peptide binding to collar soil on cotton or cotton alone, OPD/H2O2 absorbance assay. As to the method: A phage peptide sequence HTFQHQWTHQTR, (SEQ ID NO: 27) that binds to collar soil on cotton was identified after five rounds of biopanning as described in example 5 except that phage peptides were eluted by acid after each round using the methods described in Scott and Smith (1990) Science 249:386. The selectivity (stain vs. cotton binding) and affinity (koff) were measured for the corresponding peptide binding to collar soil as follows: A 1 mM solution of Ni chelated GGHTFQHQWTHQTR (SEQ ID NO: 28) was incubated with collar soil on cotton or cotton alone for 90 minutes at room temperature with shaking in a microtiter plate. A control peptide chelate Ni GGH was also tested under the same conditions. After pipeting off the incubation solution from the well, fabric swatches were rinsed in 200 μL water with shaking for 3 minutes. The residual bound peptide was assayed by adding 200 μL o-phenylenediamine (OPD) and 50 μL of 100 mM H2O2 and measuring the absorbance of the oxidized OPD at 420 nm. As summarized in Table 5 and FIG. 7, the selectivity ratio of stain binding to fabric is less than or equal to ≦3:1 and the affinity as measured by koff=1×10^−3 sec^−1.

A short description of data set [4]: Release of 14C-labeled peptide from collar soil on polyester cotton in Tide detergent, scintillation counting. Type of data set: binding. As to the method:
Soiled shirt collars (65% polyester: 35% cotton) containing the target (collar soil) and anti-target along with the control anti-target (unstained polyester:cotton from the same shirt) were cut to a diameter of 7/32″ and placed into a 96-well microtiter plate (Millipore Corp., […] Durapore membrane; Cat. No. MAGV N22 50). Serial dilutions of a 400 μM stock solution of a soil targeting peptide SISSTPRSYHWT (SEQ ID NO: 20) and a peptide control NFFPTWILPEHT (SEQ ID NO: 78) both terminally labelled with ^14C-glycine were added to 1 g/L Tide detergent solutions (Procter and Gamble, Cincinnati, Ohio) and 60 μL aliquots were placed into the wells of the microtiter plate. The plate was incubated with shaking for 30 minutes at 32° C. followed by suction filtering of excess unbound radiolabeled peptide (Vacuum manifold; Millipore Corp. Cat. No. MAVM 096 OR). The samples were rinsed three times with 200 μL of distilled water, with shaking in between rinses, over a period of about 40 minutes. The remaining radioactivity bound to the samples was quantitated by liquid scintillation counting in a Wallac microbeta counter. […] This corresponds to a rate constant for release of the soil targeting peptide koff≦2×10^−4 sec^−1.

The nature of data set [5]: ELISA of biotinylated peptide binding to hair. The arrangement: species or system human. Conditions: 200 μM biotinylated peptide in 2% body wash; FIG. 9.
Description: as §1, §2

The target of data set [6] is T1, (h) TNF-α. Briefly: IAsys biosensor binding and dissociation of phage clone on immobilized TNF-α. As to the method: The binding and dissociation of phage clone A1, amino acid sequence: RYWQDIP; Table 1, (SEQ ID NO: 3) to TNF-α was monitored using an IAsys AutoPlus Biosensor following the Labsystems Affinity Sensors IAsys Protocol 2.4 ‘Immobilization to Protein Layer: Thiol coupling to avidin’ (Thermo BioAnalysis Corp. Franklin, Mass.). Two cuvettes were first coated with avidin and one (the control) was then blocked with biotin. This was followed by activation of the lysine groups. A 15 μl aliquot of a 1 mg/ml (h) TNF-α solution was added to each cuvette. […] After blocking and washing, phage clone A1, RYWQDIP (SEQ ID NO: 3) was added to give a final titer of 5×10^11 pfu/ml.
The dissociation of the phage from the TNF-α is very slow with the dissociation constant estimated as koff<10^−4 sec^−1 (10 mM HEPES/0.05% Tween). Washing with a 10× buffer concentrate (at the 70 min time point) only removed a small portion of the phage.

Square brackets hold non-standard residues; d marks the D form. Ends that are not written are not given here. 14C‑Gly = 14C-labelled glycine

T1 sequence (P01375 77-233 limits assumed): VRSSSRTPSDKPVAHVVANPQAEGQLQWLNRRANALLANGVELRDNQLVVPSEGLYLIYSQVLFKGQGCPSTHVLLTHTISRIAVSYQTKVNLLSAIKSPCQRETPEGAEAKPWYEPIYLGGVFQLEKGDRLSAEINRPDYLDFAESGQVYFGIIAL

Turning to “APEPILA (peptides screened from a phage display random peptide library) [Clone T2]”, the Frequency in data set [1] was 7.

In turn, “ASTVGGL (peptides screened from a phage display random peptide library) [Clone T6]” registered a Frequency in data set [1] of 2.

In the case of “ATFPNQS (peptides screened from a phage display random peptide library) [Clone T5]”, the Frequency in data set [1] is given as 2.

“DMIMVSI (peptides screened from a phage display random peptide library) [Clone T3]” returned a Frequency in data set [1] of 3.

Consider “FTQSLPR (peptides screened from a phage display random peptide library)”, for which the “ELISA binding to skin versus hair” value in data set [2] was “selectively targets skin and not hair”.

As usually defined, the koff is the first-order rate constant of dissociation. A higher koff goes with a short-lived complex. In the case of “GGHTFQHQWTHQTR (peptides screened from a phage display random peptide library)”, in data set [3] (Ni-chelated peptide, dissociation from collar soil and the corresponding cotton fabric), the koff is 0.001 s⁻¹. Further, the “Affinity 10^−4 koff (sec^−1)” value in data set [3] (Table 5, Biopanning, 5 rounds of selection) is recorded as 10 10^−4 sec^−1.

GSISSTPRSYHWT ([14C‑Gly]SISSTPRSYHWT): the “Affinity 10^−4 koff (sec^−1)” value in data set [4] (Table 5, Selective Targeting (PCR), 1 round of selection) was “≦ 2 10^−4 sec^−1”.

“LESTPKMK (peptides screened from a phage display random peptide library)”: the “ELISA binding to hair” value in data set [5] is given as “binds to hair”.

“NFFPTWILPEHT (peptides screened from a phage display random peptide library) [random peptide control, reference compound]”: the “affinity or selectivity for stained fabric” value in data set [4] (1 g/L Tide, same assay, FIG. 6B) was “no affinity or selectivity”.

Consider “RYWQDIP (peptides screened from a phage display random peptide library) [Clone T1]”, for which the “koff (dissociation of the phage from the TNF-α)” value in data set [6] (10 mM HEPES/0.05% Tween) is < 10^−4 sec^−1. The “binding of phage to immobilized TNF-α” value in data set [6] (IAsys cuvette, final titer 5×10^11 pfu/ml) was “significant binding”. The same substance yielded a Frequency in data set [1] of 8.

For the substance “SISSTPRSYHWT (peptides screened from a phage display random peptide library) [Clone C4]”, the “total radiolabel remaining bound to the stained fabric” value in data set [4] (1 g/L Tide, after rinsing for 40 minutes) is given as “greater than 50%”. In data set [4] (1 g/L Tide, collar soil on polyester cotton), the “koff, rate constant for release of the soil targeting peptide” value is at most 0.0002 s⁻¹.

In data set [1], “TMLPYRP (peptides screened from a phage display random peptide library) [Clone T7]” returned a Frequency of 2.

As to “WTPKPTQ (peptides screened from a phage display random peptide library) [Clone T4]”, in data set [1], the Frequency was found to be 2.
